Experimental data taken from patent US20190248902A1 (published 2019).

T1: recombinant, soluble human ASGR-1 (human, UniProt P07306 62-291)
T1 construct: biotinylated in the binning assay; also called soluble huASGR-1; Soluble ASGR-1 (Amgen)
T1 sequence: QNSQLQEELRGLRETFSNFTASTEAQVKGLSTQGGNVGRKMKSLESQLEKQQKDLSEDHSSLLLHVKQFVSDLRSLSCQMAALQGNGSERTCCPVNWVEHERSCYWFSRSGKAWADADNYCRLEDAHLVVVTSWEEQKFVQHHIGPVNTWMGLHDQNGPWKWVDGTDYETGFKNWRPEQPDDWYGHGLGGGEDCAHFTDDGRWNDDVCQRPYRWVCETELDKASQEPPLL


Columns and labels:
[1] = target: T1, recombinant, soluble human ASGR-1; assay: Octet BLI dissociation, pH 5.6 plus calcium
Method: (§1) The relative dissociation of ASGR-1 from antibodies was measured using a label-free assay on an OctetHTX instrument (Fortebio). Antibody samples were captured on anti-HuFc kinetic biosensors (ForteBio cat #18-5064) at 5 ug/mL in assay buffer (10 mM Tris, 0.1% Triton, 150 mM NaCl, 1 mg/mL BSA, 1 mM CaCl2, pH7.4) for three minutes. A one minute baseline stabilization step was performed in assay buffer. Soluble ASGR-1 (Amgen) at 6 ug/ml in assay buffer was added and association to the antibodies was monitored for two minutes. Subsequent dissociation of ASGR-1 from the antibodies was performed by incubating the ASGR-1-mAb complexes for 10 minutes under each of the following conditions:
(§2) The binding signal at the end of the 2 minute association phase for each dissociation experiment was set to 100% and used to represent the maximal level of ASGR-1 binding. After 1 minute of dissociation, the percentage of ASGR-1 remaining bound was calculated. The lower the percent remaining at a given time point indicates increased levels of dissociation in response to the test conditions (ie. different pH and/or calcium concentrations). The change in the percentage of ASGR-1 remaining bound in response to each test condition relative to the percent remaining in the control conditions (ie. pH 7.4+calcium) was determined. Cut-offs for an antibody to be categorized as being sensitive to a particular condition were set to >10% (ie. if >10% of the ASGR-1 dissociates from the antibody under a particular test condition compared to control condition, it was deemed sensitive to that condition). The analysis was done using the 1 minute dissociation time point (except for mAb 149A1 which was binned based on the 4 minute dissociation time point). Using this analysis, the ASGR-1-binding, receptor-ligand blocking antibodies were separated into groups according to their dissociation profiles in response to pH and calcium (Table 7.3). Antibodies belonging to each category were observed.

[2] = target: T1, recombinant, soluble human ASGR-1; assay: Octet BLI dissociation, pH 7.4 minus calcium
Method: as §1, §2

[3] = target: T1, recombinant, soluble human ASGR-1; assay: Octet BLI dissociation, pH 5.6 minus calcium
Method: as §1, §2

Row | Binder | % Change Compared to pH 7.4 + Calcium [1] [%] | % Change Compared to pH 7.4 + Calcium [2] [%] | % Change Compared to pH 7.4 + Calcium [3] [%]
1 | 56E5 (antibody, V domains shown, hybridoma mAb) VH: QVQLVQSGAEVKKPGASVKVSCQASGYTFTGYHMHWVRQAPGQGLEWMGWINPNNNATNYAQKFQGRVTMTRDTSISTAYMELRRLRSDDTAVYHCARDGTSSFDYWGQGTLVTVSS VL: DIQMTQSPSSVSASVGDRVTITCRASQGIRKWLAWYQQKPGKAPKLLIYAASSLQSGVPSRFSGSGSGTDFTLTISSLQPEDFATYYCQQANSFPFTFGPGTKVDIK | -6 | 1 | -1
2 | 70D1 (antibody, V domains shown, hybridoma mAb) VH: QVQLVQSGAEVKKPGASVKVSCKASGYTFTGYHMHWVRQAPGQGLEWMGWINPNSNATNYAQKFQGRVTMTRDTSISTAYMELSRLRSDDTAVYYCARDSISSWDYWGQGTLVTVSS VL: DIQMTQSPSSVSASVGDRVTITCRASQGVSRWLAWYQQKPGKAPKLLIYAASSLQSGVPSRFSGSGSGTDFTVTISSLQPEDFATYYCQQANSFPFTFGPGTKVDIK | 12 | 17 | 29
3 | 57A7 (antibody, V domains shown, hybridoma mAb) VH: QVQLVQSGAEVKKPGASVKVSCKASGYTFTGYHIHWVRQAPGQDLEWMGWINPNNNGTNYAQKFQGRVTMTRDTSISTAYMELSRLRSDDTAVYYCARDGRSGFDYWGQGTLVTVSS VL: DIQMTQSPSSVSASVGDRVTITCRASQGISRWLAWYQQKPGKAPNLLIYAASNLQSGVPSRFSGSGSGTDFTLTISSLQPEDFATYYCQQANSFPFTFGPGTKVDIK | 13 | 13 | 29
4 | 175D10 (antibody, V domains shown, hybridoma mAb) VH: QVQLVQSGAEVKKPGASVKVSCKASGYTFTNYDLNWVRQATGQGLEWMGWMHPNSGNTGYAQKFQGRVTMTRNTSISTVYMELSSLRSEDTAVYYCAYSSGWYYFDYWGQGTLVTVSS VL: not shown | -3 | 4 | 2
5 | 25A4 (antibody, V domains shown, hybridoma mAb) VH: QVLLVQSGAEVKRPGASVKVSCKASGYTFTNYDINWVRQATGQGLEWMGWMYPNSGNTGYAQKFQGRVTMTRNTSISTAYMELSSLRSEDTAVYYCASSSGWYYFDYWGQGTLVTVSS VL: DIVMTQFPDSLAVSLGERATIKCKSSQSVLYSSHNNNYLAWYQQKPGQPPKLLLYWASTRESGVPDRFSGSGSGTEFTLTISSLEAEDVAVYYCQQYYSTPPTFGQGTKVEIK | -3 | 2 | -1
6 | 26C4 (antibody, V domains shown, hybridoma mAb) VH: QVQLVQSGAEVKKPGASVKVSCKASGYTFTNYDINWVRQASGQGLEWMGWMNPNSGNTGYAQRFQGRVTMTRNTSINTAYMELSSLRSEDTAVYYCASSSGWYYFDYWGQGTLVTVSS VL: not shown | 2 | 3 | 2
7 | 29H8 (antibody, V domains shown, hybridoma mAb) VH: QVQLVQSGAEVQKPGASVKVSCKASGYTFTNYDINWVRQATGQGLEWMGWMNPNSGNTGYAQRFQGRVTMTRNTSISAAYMELSSLRSEDTAVYYCASSSGWYYFDYWGQGTLVTVSS VL: not shown | -2 | 2 | 2
8 | 177D2 (antibody, V domains shown, hybridoma mAb) VH: QVQLVESGGGVVQPGRSLRLSCAASGFTFSSYGMDWVRQAPGKGLEWVAIIWFDGSNKYYADSVKGRFTISRDNSKNTLYLQMNSLRAEDTAVYYCARAYCGGDCYFPHLHYYGMDVWGQGTTVTVSS VL: not shown | 2 | 3 | 10
9 | 148E10 (antibody, V domains shown, hybridoma mAb) VH: QVQLVESGGGVVQPGRSLRLSCAASGFTFSSYGMHWVRQAPGKGLEWVAVIWFDGSNKYYVDSVKDRFTISRDNSKNTLYLQMNSLRAEDTAVYYCARDRVEGSGTPYYYYGMDVWGQGTTVTVSS VL: SYELTQPPSVSVSPGQTASITCSGDKLGNKYVCWYQQRPGHAAVLIIYQDSKRPSGIPERFSGSNSGNTATLTISGTQAMDEADYFCQAWDRNTYVVFGGGTKLTVL | 19 | 7 | 33
10 | 154F4 (antibody, V domains shown, hybridoma mAb) VH: QVQLVESGGGVVQPGRSLRLSCAASGFTFSSYGMHWVRQAPGKGLEWVAVIWYDGSNKYYADSVKGRFTISRDNSKNTLYLQMNSLRAEDTAVYYCAREDSYCSGTSCPYYYYYGMDVWGQGTTVTVSS VL: SYELTQPPSVSVSPGQTASITCSGDKLGNKYVCWYQQKPGQSPVEVIYKDSKRPSGIPERFSGSNSGNTGTLTISGTQAMDEADYYCQAWDNSTLVFGGGTKLTVL | 41 | 10 | 67
11 | 159H8 (antibody, V domains shown, hybridoma mAb) VH: QVQLVESGGGVVQPGRSLRLSCAASGFTFSTYGMHWVRQAPGKGLEWVAVIWYDGSNKYYADSVKGRFTISRDNSKNTLYLQMNSLRAEDTAVYYCARDRVSCSSTSCPYYYYYGMDVWGQGTTVTVSS VL: SYELTQPPSVSVSPGQTASITCSGDKLGDKYVCWYQQKPGQSPVLVIYQDRKRPSGIPERFSGSNSGNTATLTISGTQALDEADYYCQAWGNSSFVVFGGGTKLTVL | 10 | 6 | 26
12 | 160B12 (antibody, V domains shown, hybridoma mAb) VH: QVQLVESGGGVVQPGRSLRLSCAASGFTFSSYGMHWVRQAPGKGLEWVAVIWYDGSNKYYADSVKGRFTISRDNSKNTLYLQMNSLRAEDTAVYYCARDRVSCSSTSCPYYYYYGMDVWGQGTTVTVSS VL: SDELTQSPSVSVSPGQTASITCSGDKLGDKYVCWYQQKPGQSPVLVIYQDSKRPSGIPERFSGSNSGNTATLTISGTQALDEADYYCQAWGNSSFVVFGGGTKLTVL | 8 | 6 | 22
13 | 27E7 (antibody, V domains shown, hybridoma mAb) VH: QVQLVESGGGVVQPGRSLRLSCAASGFTFSSYGMHWVRQAPGKGLEWVAVIWYDGSNKYYADSVKGRFTISRDNSKNTLYLQMNSLRAEDTAVYYCAREDSYCSSTSCPYYYYYGMDVWGQGTTVTVSS VL: SYELTQPPSVSVSPGQTASITCSGDKLGNKYACWYQQKPGQSPVEVIYQDSKRPLGIPERFSGSNSGNTATLTISGTQAMDEADYYCQAWDSSTVVFGGGTKLTVL | 35 | 20 | 46
